This is an account of results in patent publication US20030022837A1 (Stanford University, published 2003).

This experiment addresses T1, His-Cdc20 (baculovirus-expressed human Cdc20) (human, UniProt Q12834 1-499).
T1 construct: Also used for the Cdc20 baculovirus of the SF9 co-infection; also called purified baculovirus-expressed Cdc20; Baculovirus-expressed Cdc20; not shown: His tag
Description: SF9 cells co-infected with Emi1 and Cdc20 baculoviruses, anti-Emi1 immunoprecipitation, Cdc20 immunoblot.

T1 sequence (Q12834 whole entry): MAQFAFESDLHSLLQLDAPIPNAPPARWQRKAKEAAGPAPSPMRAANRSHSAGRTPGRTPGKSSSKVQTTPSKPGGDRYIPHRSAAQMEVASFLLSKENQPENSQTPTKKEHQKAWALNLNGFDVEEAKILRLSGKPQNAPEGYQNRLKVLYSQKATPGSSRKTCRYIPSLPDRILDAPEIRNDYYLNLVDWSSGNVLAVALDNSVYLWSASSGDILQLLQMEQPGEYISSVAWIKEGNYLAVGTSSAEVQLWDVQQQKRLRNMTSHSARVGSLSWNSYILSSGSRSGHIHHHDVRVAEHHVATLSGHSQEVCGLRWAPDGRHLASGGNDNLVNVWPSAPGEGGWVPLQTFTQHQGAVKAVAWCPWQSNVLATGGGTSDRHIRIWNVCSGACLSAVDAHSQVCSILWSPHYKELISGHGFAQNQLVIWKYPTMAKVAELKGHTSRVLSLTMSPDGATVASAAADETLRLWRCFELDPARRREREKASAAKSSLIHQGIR

B1: Xenopus Emi1 (Early Mitotic Inhibitor 1), full-length wild type (other)
chain: MMCGFASNQSPKKLSSKKSSATNVHLEISPVKHHPPCKVYENVQGSCLDSAICTTVAKCADLTDDLPVHNKENLLHRLNDLETNSYEEYSALQDSGYSSILQNDSPCQDETDRKVSDIQVRETPKNFMSYQRPFHTLSKINLPILRFEEAVCSTLKKMRKTNKKIDWNAVDVVCGGNYGLEHLIGKSMGLERFDILAELFHRDFKHLLTKILRHLSAMDLINVISVSTTWRKLLQKDNWAYNAYKLGCKELCEKRAKVSSHTATRDESLCRVPLASVQKVAASSLCTSKKQSKNKNGGLSCNRLAEFIEVAQTLKNDQSLKVCVDCGSPAKHDPCLHRAICTRESCKLDFCTRCSCKYHFSKSCLMSKPGSYRIPSEPLPGSKKSKQNLRRL
notes: 392 residues; also called xEmi1; Emi1p
In the case of B1, the binding result is on record as “binds”.
